Key:
[1] = biological target: T1, porcine citrate synthase (CS) (Sus scrofa, UniProt P00889); assay: αB crystallin protein pin array with citrate synthase; format: binding; conditions: CS as target protein in the pin array
T1 construct: purchased Roche Diagnostics, IN 103 381
T1 sequence (P00889 28-464): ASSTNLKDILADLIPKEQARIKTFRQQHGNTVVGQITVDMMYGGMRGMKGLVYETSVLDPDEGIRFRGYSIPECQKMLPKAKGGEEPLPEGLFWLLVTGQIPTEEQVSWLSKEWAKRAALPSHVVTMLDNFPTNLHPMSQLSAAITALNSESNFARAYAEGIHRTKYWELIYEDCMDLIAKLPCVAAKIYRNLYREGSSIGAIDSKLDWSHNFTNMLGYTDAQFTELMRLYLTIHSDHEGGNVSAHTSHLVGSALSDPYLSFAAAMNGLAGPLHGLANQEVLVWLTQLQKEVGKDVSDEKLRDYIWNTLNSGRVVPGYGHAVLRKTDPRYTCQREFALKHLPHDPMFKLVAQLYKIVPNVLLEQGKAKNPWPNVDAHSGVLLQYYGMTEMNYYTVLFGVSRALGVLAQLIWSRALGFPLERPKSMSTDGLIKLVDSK
Source text: (§1) Synthesis of Pins, binding and detection of peptides binding to ligand proteins. The αB crystallin protein pin array was used to measure the interaction between peptides and chaperone target proteins including bovine βH crystallin, human γD crystallin, equine alcohol dehydrogenase (ADH) and porcine citrate synthase (CS) as described (FIG. 12). Ghosh and Clark, Protein Sci 14: 684-95, 2005.
(§2) Refer to the methods section for detailed protocols. The absorbance corresponding to the blue coloration in each well was measured at λ=450 nm and plotted against the amino acid sequence of the corresponding peptide in that well (FIGS. 13 and 14). Wells containing peptides that have strong interactions with target proteins are dark blue and wells containing peptides that have weak or no interaction with target proteins are light blue or clear.
(§3) The purity of the target proteins used in the pin array assays, bovine βH crystallin, human γD crystallin, equine alcohol dehydrogenase (ADH) and porcine citrate synthase (CS) were determined to be >90% by SDS-PAGE. In addition, primary antibodies for each target protein were specific to that target protein and consequently contaminating proteins that may bind to the peptides will not be detected. Eighty-four sequential and overlapping peptide fragments corresponding to residues 1-175 of human αB crystallin were synthesized employing a simultaneous peptide synthesis strategy developed by Geysen, called Multipin Peptide Synthesis (Mimotopes, San Diego, Calif.). Geysen, Southeast Asian J Trop Med Public Health 21: 523-33, 1990; Chin et al., J Org Chem 62: 538-539, 1997. Peptides were immobilized on derivatized polyethylene pins arranged in a microtiter ELISA plate format. Each peptide was eight amino acids in length and consecutive peptides were offset by two amino acids. All peptides were bound covalently to the surface of the plastic pins. The first peptide was 1MDIAIHHP8 and the last peptide was 168PAVTAAPK175 for human αB crystallin.
(§4) Ghosh and Clark, Protein Sci 14: 684-95, 2005. […] The intensity of the blue color in the wells was measured at 450 nm using an ELISA plate-reader (BioTek, Winooski, Vt.). The intensity of the blue color (plotted on the X-axis) was a measure of the interaction between αB crystallin peptides (plotted on the Y-axis) and target proteins. To measure the effect of temperature on the interactions between interactive peptides and the target proteins, the target proteins were heated in a water-bath at 45° C. for fifteen minutes prior to use. Pin arrays are unable to differentiate between monomers, dimers or oligomers of target proteins that exist in solution. Instead, pin arrays are very sensitive detectors of interactions between individual peptides and the entire population (monomers, dimers or oligomers) of specific target proteins that may exist in solution under specific conditions. Each target protein was assayed two to five times. A single pin array was used for all experiments and no change in interactions was observed after more than thirty repetitions. The last three peptides of the protein pin array, 163REEKPAVT170, 165EKPAVTAA172, 167PAVTAAPK174, correspond to the epitope (163REEKPAVTAAPKK175) recognized by the primary antibody for human αB crystallin. A positive reaction is observed for these three peptides in the absence of human αB crystallin as the ligand due to direct binding of the anti-human αB crystallin antibody to these three peptides. The loss of efficiency for the pin array was measured using this assay. The loss of efficiency for the pin array was determined to be <5% by after more than 30 assays.
The pattern of absorbance at λ=450 nm when αB crystallin peptides were assayed with unheated and pre-heated CS was similar to the absorbance pattern obtained with unheated and pre-heated βH/γD crystallin and ADH (FIG. 18). […]

[2] = biological target: beta amyloid (Homo sapiens, UniProt P05067); assay: αB crystallin protein pin array, binding of beta amyloid; conditions: immobilized 8-mer peptide; absorption at 450 nm
Source text: αB Crystallin peptides that bind the target protein beta-amyloid were identified by screening an αB crystallin protein pin array, which provides a systematic method for evaluating interactions between peptides corresponding to residues 1-175 of human αB crystallin and selected target proteins in a parallel and simultaneous manner.
Peptides were synthesized on derivatized polyethylene pins arranged in a microtiter plate format. Each peptide was 8 amino acids in length and consecutive peptides were offset by 2 amino acids. All peptides were covalently bonded to the surface plastic pins. The first immobilized peptide was 1MDIAIHHP8 and the last peptide was 168PAVTAAPK175 for the human αB crystallin.
After synthesis, the pins were pre-coated at room temperature with 2% Bovine Serum Albumin (BSA), 0.1% Tween-20 and 0.1% Sodium azide in 10 mM phosphate buffered saline pH 7.2 (PBS) for 1 hr, and washed three times for 10 mins each with 10 mM PBS. To screen for binding to the peptides, fixed concentrations of the target protein beta amyloid was dissolved in 10 mM PBS, containing 0.05% Tween-20, added to each well and incubated for 1 hr at room temperature. The pin array was washed three times for 10 mins each with 10 mM PBS, containing 0.05% Tween-20. Monoclonal or polyclonal primary antibodies for the target protein beta amyloid was diluted into PBS buffer, added to each well and incubated for 1 hr at room temperature. Subsequently, the pin array was washed three times for 10 mins each with 10 mM PBS containing 0.05% Tween-20. Anti-rabbit horse-radish peroxidase conjugate secondary antibodies was diluted into PBS buffer, added to each well and incubated for 1 hr at room temperature. The pin array was washed three times for 10 mins each with 10 mM PBS containing 0.05% Tween-20. A chromogenic substrate of horse-radish peroxidase 3,3′,5,5′-Tetramethylbenzidine (TMB) (Pharmingen, San Diego, Calif.) which is colorless was added, and the reaction was carried out for 45 min.
The reaction was stopped by adding 6N sulfuric acid, which changes the color from blue to yellow. The absorption at 450 nm was measured by an ELISA reader (BioTek, Winooski, Vt.).
The pin array was regenerated by sonication in a water bath (VWR Aquasonic, West Chester, Pa.) with 100 mM PBS, containing 1% Sodium dodecyl sulfate (SDS) and 0.1% 2-Mercaptoethanol@60° C. for 10 mins. Next, the pin array was rinsed three times in deionized water, preheated to 60° C. for 30 secs each time, and shaken in water preheated at 60° C. for 30 min. The pin array was then washed with methanol at 60° C. for 15 secs and air-dried and stored @−20° C. for future use. Each target protein was assayed 2-5 times against the human αB crystallin protein pin array peptides to verify the reproducibility of the results. Peptides numbered 5, 7, 8, 9, 13, 19, 22, 23, 24, 27, 35, 38, 45, 51, 52, 56, 57, 61, 66, 71, 72, and 79 in Table 2 reproducibly tested positive in the protein pin assay.

[3] = as provided by manufacturer (Mimotopes); cited from earlier work
[4] = biological target: T2, equine alcohol dehydrogenase (ADH) (Equus caballus, UniProt P00327); assay: αB crystallin protein pin array with alcohol dehydrogenase; format: binding; conditions: ADH as ligand in the pin array
T2 construct: purchased Sigma-Aldrich, MO 05646
T2 sequence (P00327 whole entry): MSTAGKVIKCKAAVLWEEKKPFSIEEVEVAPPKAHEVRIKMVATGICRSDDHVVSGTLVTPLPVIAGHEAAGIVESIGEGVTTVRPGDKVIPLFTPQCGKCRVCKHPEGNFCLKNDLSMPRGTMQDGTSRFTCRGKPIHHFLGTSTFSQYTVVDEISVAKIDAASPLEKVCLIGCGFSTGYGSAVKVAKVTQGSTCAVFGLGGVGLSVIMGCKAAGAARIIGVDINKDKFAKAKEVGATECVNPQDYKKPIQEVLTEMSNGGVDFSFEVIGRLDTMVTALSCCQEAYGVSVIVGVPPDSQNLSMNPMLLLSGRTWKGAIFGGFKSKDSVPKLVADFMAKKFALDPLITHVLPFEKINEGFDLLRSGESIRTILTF
Source text: as §1, §2, §3, §4
The pattern of absorbance at k=450 nm when αB crystallin peptides were assayed with unheated and pre-heated ADH was similar to the absorbance pattern obtained with unheated and pre-heated βH/γD crystallin (FIG. 17). […]

[5] = biological target: T3, human γD crystallin (Homo sapiens, UniProt P07320); assay: αB crystallin protein pin array with γD crystallin; format: binding; conditions: unheated γD crystallin; similar maxima pre-heated 45° C.
T3 construct: made in house
T3 sequence (P07320 1-174): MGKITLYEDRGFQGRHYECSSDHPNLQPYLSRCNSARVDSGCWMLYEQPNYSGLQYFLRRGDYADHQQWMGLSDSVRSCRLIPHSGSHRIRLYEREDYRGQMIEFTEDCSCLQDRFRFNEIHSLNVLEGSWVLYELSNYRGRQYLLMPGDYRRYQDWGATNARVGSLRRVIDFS
Source text: as §1, §2, §3, §4
When βH crystallin was replaced with γD crystallin, a native protein constituent of lens cytoplasm from the same gene family as the β crystallins, as the ligand in the pin array, twelve interactive sequences were identified (FIG. 14: striped bars). […]

[6] = system: bovine βH crystallin; assay: αB crystallin protein pin array with βH crystallin; format: binding; conditions: unheated βH crystallin, 23° C.; similar maxima pre-heated 45° C.
Source text: as §1, §2, §3, §4
Protein pin arrays enabled the identification of interactive sequences necessary for the chaperone activity of human αB crystallin. Interactions between immobilized 8-mer human αB crystallin peptides and unheated and pre-heated βH crystallin, a natural protein constitute of lens cells, were measured as absorbances at λ=450 nm at 23° C. […]

| Sequence | absorbance at 450 nm, interaction with CS [1] | binding of beta amyloid in the protein pin assay [2] | Hydrophobicity [3] | absorbance at 450 nm, interaction with ADH [4] | absorbance at 450 nm, interaction with γD crystallin [5] | absorbance at 450 nm, interaction with βH crystallin [6] |
| --- | --- | --- | --- | --- | --- | --- |
| FPFHSPSR [Peptide 8] | absorbance maxima | positive | 0.51 |  |  |  |
| SREFHRKY [Peptide 58] |  |  | −0.1 | Maximum absorbances |  |  |
| SLSPFYLR [Peptide 22] | absorbance maxima | positive | 0.72 | Maximum absorbances | maximum absorbances |  |
| PFFPFHSP [Peptide 7] |  | positive | 0.95 | Maximum absorbances | maximum absorbances |  |
| RLEKDRFS [Peptide 35] |  | positive | −0.12 | Maximum absorbances |  | Maximum absorbances |
| LRPPSFLR [Peptide 25] |  |  | 0.57 | Maximum absorbances |  |  |
| FFGEHLLE [Peptide 14] |  |  | 0.73 | Maximum absorbances |  |  |
| SFLRAPSW [Peptide 27] |  | positive | 0.71 |  | maximum absorbances |  |
| LFPTSTSL [Peptide 19] |  | positive | 0.79 | Maximum absorbances |  |  |
| LTVNGPRK [Peptide 72] | absorbance maxima | positive | 0.16 |  |  |  |
| LRAPSWFD [Peptide 28] | absorbance maxima |  | 0.62 |  |  |  |
| FISREFHR [Peptide 57] | absorbance maxima | positive | 0.35 |  |  | Maximum absorbances |
| FYLRPPSF [Peptide 24] | absorbance maxima | positive | 0.83 |  | maximum absorbances | Maximum absorbances |
| RTIPITRE [Peptide 79] | absorbance maxima | positive | 0.27 | Maximum absorbances |  | Maximum absorbances |
| GVLTVNGP [Peptide 71] |  | positive | 0.57 | Maximum absorbances | maximum absorbances | Maximum absorbances |

Source: patent publication US20070185028A1, “Compositions and methods for treatment of protein misfolding and protein aggregation diseases” (priority 2004, published 2007)
